Assays:
[1] = biological target: Cub fusion of mature GENOMES UNCOUPLED 4 (GUN4) (Arabidopsis thaliana) (UniProt Q9LX31)
[2] = biological target: Cub fusion of mature GENOMES UNCOUPLED 4 (GUN4) (Arabidopsis thaliana) (UniProt Q9LX31); remark: listed apart in the source

Chain of UniProt Q9LX31 (Q9LX31 70-265): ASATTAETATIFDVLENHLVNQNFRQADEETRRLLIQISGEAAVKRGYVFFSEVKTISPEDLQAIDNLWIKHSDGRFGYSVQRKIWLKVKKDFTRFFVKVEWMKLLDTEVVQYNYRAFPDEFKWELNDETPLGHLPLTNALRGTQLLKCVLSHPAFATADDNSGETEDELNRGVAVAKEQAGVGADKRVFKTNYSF

in vitro MgCh activity (MgP formed, HPLC) of recombinant MgCh subunits with His-GUN4: thylakoids from BCM1-OX3/gun4-1 against thylakoids from bcm1-3 gun4-1 seedlings [1]: 12% | in vitro MgCh activity in 0.15 mM β-DM: 1 μM purified His-BCM1 against assays without BCM1 or with 1 μM GST [2]: 3 fold | in vitro MgCh activity with His-GUN4 and the three MgCh subunits: yeast membranes holding His-BCM1 against control membranes without BCM1 [2]: 12%
Substance: NubG-BCM1 (mature BALANCE of CHLOROPHYLL METABOLISM 1) (natural protein)
